B1: PhStom (56–234) K59S (domain or fragment, Pyrococcus horikoshii, UniProt O59180 56-234, looked up)
chain: IFESAVIVDLRTQVLDVPVQETITKDNVPVRVNAVVYFRVVDPVKAVTQVKNYIMATSQISQTTLRSVIGQAHLDELLSERDKLNMQLQRIIDEATDPWGIKVTAVEIKDVELPAGMQKAMARQAEAERERRARITLAEAERQAAEKLREAAEIISEHPMALQLRTLQTISDVAGDKSN
notes: stomatin PH1511 of Pyrococcus horikoshii, residues 56–234 with K59S; Initial methionine added before residue 56; PDB 3BK6 is the parent (wild type) of the same limits; also called K59S mutant of PhStom (56–234); K59S mutant; source: E. coli BL21 (DE3) Codon-Plus RIL, purified (heat 85 °C, Ni-NTA, Superdex 200 gel filtration)
B2: PhStom (63–234) (domain or fragment, Pyrococcus horikoshii, UniProt O59180 63-234, looked up)
chain: VDLRTQVLDVPVQETITKDNVPVRVNAVVYFRVVDPVKAVTQVKNYIMATSQISQTTLRSVIGQAHLDELLSERDKLNMQLQRIIDEATDPWGIKVTAVEIKDVELPAGMQKAMARQAEAERERRARITLAEAERQAAEKLREAAEIISEHPMALQLRTLQTISDVAGDKSN
notes: stomatin PH1511 of Pyrococcus horikoshii, residues 63–234; Initial methionine added before residue 63; In the crystal (8GN9) only residues 64–169 are modelled; the authors consider that residues 170–234 (and so the tag) were degraded during crystallization; source: E. coli BL21 (DE3) Codon-Plus RIL, purified (heat 85 °C, Ni-NTA, Superdex 200 gel filtration)

Biological target: the molecule itself
Assay: SEC; Hi Load 16/60 Superdex 200 gel-filtration column, 50 mM Tris-HCl (pH 8.2), 50 mM NaCl, 1 mL/min; approximate molecular mass estimated from the elution of calibration proteins (44–669 kDa)

Protein | stoichiometry N
B1 | 2
B2 | 2

— PMC9663324, “Structural and mutational studies suggest key residues to determine whether stomatin SPFH domains form dimers or trimers” (Biochemistry and Biophysics Reports, 2022)
